B1: bsAb011 (bispecific antibody)
heavy: QVQLVQSGAEVKKPGASVKLSCKASGYIFTRYYMYWVKQRPGQGLEWIGEINPNNGGTKFNEKFKNRATLTVDKSISTAYMELSRLRSDDTAVYYCSREDDYDGTPFAMDYWGQGTLVTVSSASTKGPSVFPLAPSSKSTSGGTAALGCLVKDYFPEPVTVSWNSGALTSGVHTFPAVLQSSGLYSLSSVVTVPSSSLGTQTYICNVNHKPSNTKVDKRVEPKSCDKTHTCPPCPAPEFEGGPSVFLFPPKPKDTLMISRTPEVTCVVVDVSHEDPEVKFNWYVDGVEVHNAKTKPREEQYNSTYRVVSVLTVLHQDWLNGKEYKCKVSNKALPASIEKTISKAKGQPREPQVYTLPPSREEMTKNQVSLTCLVKGFYPSDIAVEWESNGQPENNYKTTPPVLDSDGSFFLYSKLTVDKSRWQQGNVFSCSVMHEALHNHYTQKSLSLSPG
light: not shown
B2: bsAb003 (bispecific antibody, human IgG1, kappa)
heavy: QVQLVQSGAEVKKPGASVKLSCKASGYIFTRYYMYWVKQRPGQGLEWIGEINPNNGGTKFNEKFKNRATLTVDKSISTAYMELSRLRSDDTAVYYCSREDDYDGTPFAMDYWGQGTLVTVSSASTKGPSVFPLAPSSKSTSGGTAALGCLVKDYFPEPVTVSWNSGALTSGVHTFPAVLQSSGLYSLSSVVTVPSSSLGTQTYICNVNHKPSNTKVDKRVEPKSCDKTHTCPPCPAPEFEGGPSVFLFPPKPKDTLMISRTPEVTCVVVDVSHEDPEVKFNWYVDGVEVHNAKTKPREEQYNSTYRVVSVLTVLHQDWLNGKEYKCKVSNKALPASIEKTISKAKGQPREPQVYTLPPSREEMTKNQVSLTCLVKGFYPSDIAVEWESNGQPENNYKTTPPVLDSDGSFFLYSKLTVDKSRWQQGNVFSCSVMHEALHNHYTQKSLSLSPGGGGGSGGGGSGGGGSGGGGSEVQLVESGGGLVQPGGSLRLSCAASGFTFSRYWMSWVRQAPGKGLEWVANIKQDGSEKYYVDSVKGRFTISRDNAKNSLYLQMNSLRAEDTAVYYCAREGGWFGELAFDYWGQGTLVTVSSGGGGSGGGGSGGGGSGGGGSEIVLTQSPGTLSLSPGERATLSCRASQRVSSSYLAWYQQKPGQAPRLLIYDASSRATGIPDRFSGSGSGTDFTLTISRLEPEDFAVYYCQQYGSLPWTFGQGTKVEIK
light: not shown
B3: bsAb059 (bispecific antibody)
heavy: QVQLVQSGVEVKKPGASVKVSCKASGYTFTNYYMYWVRQAPGQGLEWMGGINPSNGGTNFNEKFKNRVTLTTDSSTTTAYMELKSLQFDDTAVYYCARRDYRFDMGFDYWGQGTTVTVSSASTKGPSVFPLAPSSKSTSGGTAALGCLVKDYFPEPVTVSWNSGALTSGVHTFPAVLQSSGLYSLSSVVTVPSSSLGTQTYICNVNHKPSNTKVDKRVEPKSCDKTHTCPPCPAPEFEGGPSVFLFPPKPKDTLMISRTPEVTCVVVDVSHEDPEVKFNWYVDGVEVHNAKTKPREEQYNSTYRVVSVLTVLHQDWLNGKEYKCKVSNKALPASIEKTISKAKGQPREPQVYTLPPSREEMTKNQVSLTCLVKGFYPSDIAVEWESNGQPENNYKTTPPVLDSDGSFFLYSKLTVDKSRWQQGNVFSCSVMHEALHNHYTQKSLSLSPG
light: QVQLVQSGAEVKKPGASVKLSCKASGYIFTRYYMYWVKQRPGQGLEWIGEINPNNGGTKFNEKFKNRATLTVDKSISTAYMELSRLRSDDTAVYYCSREDDYDGTPFAMDYWGQGTLVTVSSGGGGSGGGGSGGGGSGGGGSDIQMTQSPSSLSASVGDRVTITCHASQNINVWLSWYQQKPGKAPKLLIYKASNLHTGVPSRFTGSGSGTDFTFTISSLQPEDIATYYCQQGQTYPYTFGQGTKLEIKGGGGSGGGGSGGGGSGGGGSEIVLTQSPATLSLSPGERATLSCRASKGVSTSGYSYLHWYQQKPGQAPRLLIYLASYLESGVPARFSGSGSGTDFTLTISSLEPEDFAVYYCQHSRDLPLTFGGGTKVEIKRTVAAPSVFIFPPSDEQLKSGTASVVCLLNNFYPREAKVQWKVDNALQSGNSQESVTEQDSKDSTYSLSSTLTLSKADYEKHKVYACEVTHQGLSSPVTKSFNRGEC
B4: bsAb060 (bispecific antibody)
heavy: QVQLVQSGVEVKKPGASVKVSCKASGYTFTNYYMYWVRQAPGQGLEWMGGINPSNGGTNFNEKFKNRVTLTTDSSTTTAYMELKSLQFDDTAVYYCARRDYRFDMGFDYWGQGTTVTVSSASTKGPSVFPLAPSSKSTSGGTAALGCLVKDYFPEPVTVSWNSGALTSGVHTFPAVLQSSGLYSLSSVVTVPSSSLGTQTYICNVNHKPSNTKVDKRVEPKSCDKTHTCPPCPAPEFEGGPSVFLFPPKPKDTLMISRTPEVTCVVVDVSHEDPEVKFNWYVDGVEVHNAKTKPREEQYNSTYRVVSVLTVLHQDWLNGKEYKCKVSNKALPASIEKTISKAKGQPREPQVYTLPPSREEMTKNQVSLTCLVKGFYPSDIAVEWESNGQPENNYKTTPPVLDSDGSFFLYSKLTVDKSRWQQGNVFSCSVMHEALHNHYTQKSLSLSPG
light: DIQMTQSPSSLSASVGDRVTITCHASQNINVWLSWYQQKPGKAPKLLIYKASNLHTGVPSRFTGSGSGTDFTFTISSLQPEDIATYYCQQGQTYPYTFGQGTKLEIKGGGGSGGGGSGGGGSGGGGSQVQLVQSGAEVKKPGASVKLSCKASGYIFTRYYMYWVKQRPGQGLEWIGEINPNNGGTKFNEKFKNRATLTVDKSISTAYMELSRLRSDDTAVYYCSREDDYDGTPFAMDYWGQGTLVTVSSGGGGSGGGGSGGGGSGGGGSEIVLTQSPATLSLSPGERATLSCRASKGVSTSGYSYLHWYQQKPGQAPRLLIYLASYLESGVPARFSGSGSGTDFTLTISSLEPEDFAVYYCQHSRDLPLTFGGGTKVEIKRTVAAPSVFIFPPSDEQLKSGTASVVCLLNNFYPREAKVQWKVDNALQSGNSQESVTEQDSKDSTYSLSSTLTLSKADYEKHKVYACEVTHQGLSSPVTKSFNRGEC
B5: bsAb039 (bispecific antibody, not shown: small tags and cut ends; a dimerising Fc or GST)
heavy (part 1 of 2): QVQLVQSGVEVKKPGASVKVSCKASGYTFTNYYMYWVRQAPGQGLEWMGGINPSNGGTNFNEKFKNRVTLTTDSSTTTAYMELKSLQFDDTAVYYCARRDYRFDMGFDYWGQGTTVTVSS
heavy (part 2 of 2): GGGGSGGGGSGGGGSGGGGSDIQMTQSPSSLSASVGDRVTITCHASQNINVWLSWYQQKPGKAPKLLIYKASNLHTGVPSRFTGSGSGTDFTFTISSLQPEDIATYYCQQGQTYPYTFGQGTKLEIKGGGGSGGGGSGGGGSGGGGSQVQLVQSGAEVKKPGASVKLSCKASGYIFTRYYMYWVKQRPGQGLEWIGEINPNNGGTKFNEKFKNRATLTVDKSISTAYMELSRLRSDDTAVYYCSREDDYDGTPFAMDYWGQGTLVTVSS
heavy: GGGGSGGGGSGGGGSGGGGSDIQMTQSPSSLSASVGDRVTITCHASQNINVWLSWYQQKPGKAPKLLIYKASNLHTGVPSRFTGSGSGTDFTFTISSLQPEDIATYYCQQGQTYPYTFGQGTKLEIKGGGGSGGGGSGGGGSGGGGSQVQLVQSGAEVKKPGASVKLSCKASGYIFTRYYMYWVKQRPGQGLEWIGEINPNNGGTKFNEKFKNRATLTVDKSISTAYMELSRLRSDDTAVYYCSREDDYDGTPFAMDYWGQGTLVTVSS
light: EIVLTQSPATLSLSPGERATLSCRASKGVSTSGYSYLHWYQQKPGQAPRLLIYLASYLESGVPARFSGSGSGTDFTLTISSLEPEDFAVYYCQHSRDLPLTFGGGTKVEIKRTVAAPSVFIFPPSDEQLKSGTASVVCLLNNFYPREAKVQWKVDNALQSGNSQESVTEQDSKDSTYSLSSTLTLSKADYEKHKVYACEVTHQGLSSPVTKSFNRGEC
B6: bsAb053 (bispecific antibody, not shown: small tags and cut ends)
heavy (part 1 of 2): QVQLVQSGVEVKKPGASVKVSCKASGYTFTNYYMYWVRQAPGQGLEWMGGINPSNGGTNFNEKFKNRVTLTTDSSTTTAYMELKSLQFDDTAVYYCARRDYRFDMGFDYWGQGTTVTVSS
heavy (part 2 of 2): GGGGSGGGGSGGGGSGGGGSQVQLVQSGAEVKKPGASVKLSCKASGYIFTRYYMYWVKQRPGQGLEWIGEINPNNGGTKFNEKFKNRATLTVDKSISTAYMELSRLRSDDTAVYYCSREDDYDGTPFAMDYWGQGTLVTVSSGGGGSGGGGSGGGGSGGGGSDIQMTQSPSSLSASVGDRVTITCHASQNINVWLSWYQQKPGKAPKLLIYKASNLHTGVPSRFTGSGSGTDFTFTISSLQPEDIATYYCQQGQTYPYTFGQGTKLEIK
heavy: QVQLVQSGVEVKKPGASVKVSCKASGYTFTNYYMYWVRQAPGQGLEWMGGINPSNGGTNFNEKFKNRVTLTTDSSTTTAYMELKSLQFDDTAVYYCARRDYRFDMGFDYWGQGTTVTVSS
light: EIVLTQSPATLSLSPGERATLSCRASKGVSTSGYSYLHWYQQKPGQAPRLLIYLASYLESGVPARFSGSGSGTDFTLTISSLEPEDFAVYYCQHSRDLPLTFGGGTKVEIKRTVAAPSVFIFPPSDEQLKSGTASVVCLLNNFYPREAKVQWKVDNALQSGNSQESVTEQDSKDSTYSLSSTLTLSKADYEKHKVYACEVTHQGLSSPVTKSFNRGEC
B7: bsAb042 (bispecific antibody, not shown: small tags and cut ends; a dimerising Fc or GST)
heavy 1: QVQLVQSGVEVKKPGASVKVSCKASGYTFTNYYMYWVRQAPGQGLEWMGGINPSNGGTNFNEKFKNRVTLTTDSSTTTAYMELKSLQFDDTAVYYCARRDYRFDMGFDYWGQGTTVTVSS
heavy 2: QVQLVQSGAEVKKPGASVKLSCKASGYIFTRYYMYWVKQRPGQGLEWIGEINPNNGGTKFNEKFKNRATLTVDKSISTAYMELSRLRSDDTAVYYCSREDDYDGTPFAMDYWGQGTLVTVSSGGGGSGGGGSGGGGSGGGGSDIQMTQSPSSLSASVGDRVTITCHASQNINVWLSWYQQKPGKAPKLLIYKASNLHTGVPSRFTGSGSGTDFTFTISSLQPEDIATYYCQQGQTYPYTFGQGTKLEIKGGGGSGGGGSGGGGSGGGGS
light: EIVLTQSPATLSLSPGERATLSCRASKGVSTSGYSYLHWYQQKPGQAPRLLIYLASYLESGVPARFSGSGSGTDFTLTISSLEPEDFAVYYCQHSRDLPLTFGGGTKVEIKRTVAAPSVFIFPPSDEQLKSGTASVVCLLNNFYPREAKVQWKVDNALQSGNSQESVTEQDSKDSTYSLSSTLTLSKADYEKHKVYACEVTHQGLSSPVTKSFNRGECGGGGSGGGGSGGGGSGGGGSDIQMTQSPSSLSASVGDRVTITCHASQNINVWLSWYQQKPGKAPKLLIYKASNLHTGVPSRFTGSGSGTDFTFTISSLQPEDIATYYCQQGQTYPYTFGQGTKLEIKGGGGSGGGGSGGGGSGGGGSQVQLVQSGAEVKKPGASVKLSCKASGYIFTRYYMYWVKQRPGQGLEWIGEINPNNGGTKFNEKFKNRATLTVDKSISTAYMELSRLRSDDTAVYYCSREDDYDGTPFAMDYWGQGTLVTVSS

target: BTN3A expressed at the cell surface (human), O00481; assay: cell-based or functional assay
Sequence (O00481 30-513): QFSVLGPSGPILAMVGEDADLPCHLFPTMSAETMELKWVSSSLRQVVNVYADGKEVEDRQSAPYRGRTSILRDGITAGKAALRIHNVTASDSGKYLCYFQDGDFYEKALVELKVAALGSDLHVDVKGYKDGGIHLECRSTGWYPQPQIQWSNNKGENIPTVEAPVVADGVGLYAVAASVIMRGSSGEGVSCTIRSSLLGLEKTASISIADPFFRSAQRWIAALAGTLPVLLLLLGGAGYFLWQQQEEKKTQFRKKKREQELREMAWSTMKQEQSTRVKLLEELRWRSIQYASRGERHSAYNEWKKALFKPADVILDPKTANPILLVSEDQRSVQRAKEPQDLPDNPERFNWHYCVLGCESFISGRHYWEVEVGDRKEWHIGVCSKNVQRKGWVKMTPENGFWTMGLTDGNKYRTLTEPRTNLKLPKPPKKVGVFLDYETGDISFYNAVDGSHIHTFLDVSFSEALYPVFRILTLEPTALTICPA

Going from B1 to B2, the Jurkat-Vy9Vo2 TCR MOP activation at 0.5 nM (fold-change to medium) rises from 12.2 to 13.6.

B3 and B4 are the same in Jurkat-Vy9Vo2 TCR MOP activation at 0.5 nM (fold-change to medium): 1.1 for the first, 1.1 for the second.

Compared with B5, B6 is higher in Jurkat-Vy9Vo2 TCR MOP activation at 0.5 nM (fold-change to medium): 0.9 for the first, 1.2 for the second.

B7 gave a Jurkat-Vy9Vo2 TCR MOP activation at 0.5 nM (fold-change to medium) of 1.1.

Going from B1 to B2, the Jurkat-Vy9Vo2 TCR MOP activation at 5 nM (fold-change to medium) rises from 9.8 to 10.7.

B3 and B4 are the same in Jurkat-Vy9Vo2 TCR MOP activation at 5 nM (fold-change to medium): 1.1 for the first, 1.1 for the second.

Compared with B5, B6 is higher in Jurkat-Vy9Vo2 TCR MOP activation at 5 nM (fold-change to medium): 1 for the first, 1.1 for the second.

B7 gave a Jurkat-Vy9Vo2 TCR MOP activation at 5 nM (fold-change to medium) of 1.

Reference: patent publication US20260265379A1
